Data reported in US20260356969 (published 2026).
Numbering of substitutions follows the chain as printed. Where two headings read alike, the source gives them in different places. Values belong to the binder of their own block, whether it stands above or below them.

What was measured:
CD26 [1] = molecular target: T1, CD26 (human, UniProt P27487); assay: BLI
[2] = molecular target: 21G583 CD26 fragment 29-300 (human); assay: FACS
[3] = molecular target: 23G645 CD26 fragment 498-766 (human); assay: FACS
23G645 CD26 fragment 498-766 (human), sequence (chain, as listed by the source): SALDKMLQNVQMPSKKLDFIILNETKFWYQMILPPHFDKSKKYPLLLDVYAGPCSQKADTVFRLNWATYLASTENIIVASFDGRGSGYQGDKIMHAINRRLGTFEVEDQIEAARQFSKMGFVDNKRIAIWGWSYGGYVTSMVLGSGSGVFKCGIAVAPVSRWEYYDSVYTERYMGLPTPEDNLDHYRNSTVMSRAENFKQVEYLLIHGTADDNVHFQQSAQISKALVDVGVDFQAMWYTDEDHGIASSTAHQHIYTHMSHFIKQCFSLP

[4] = molecular target: 21G584 CD26 fragment 29-237 (human); assay: FACS
21G584 CD26 fragment 29-237 (human), sequence (chain, as listed by the source): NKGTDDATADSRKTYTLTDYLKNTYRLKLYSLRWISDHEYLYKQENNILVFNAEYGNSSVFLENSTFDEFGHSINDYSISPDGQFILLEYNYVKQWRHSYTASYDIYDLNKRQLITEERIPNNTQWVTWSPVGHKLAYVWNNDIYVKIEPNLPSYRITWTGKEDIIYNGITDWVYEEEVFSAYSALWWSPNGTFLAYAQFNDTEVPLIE

[5] = molecular target: 21G585 CD26 fragment 29-182 (human); assay: FACS
21G585 CD26 fragment 29-182 (human), sequence (chain, as listed by the source): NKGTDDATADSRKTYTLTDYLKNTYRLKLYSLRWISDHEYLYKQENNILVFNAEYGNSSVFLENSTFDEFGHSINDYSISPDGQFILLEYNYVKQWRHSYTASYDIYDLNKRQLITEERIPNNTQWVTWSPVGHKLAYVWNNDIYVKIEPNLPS

CD26 [6] = molecular target: T1, CD26; assay: BLI; remark: listed apart in the source

T1 sequence (P27487 29-766): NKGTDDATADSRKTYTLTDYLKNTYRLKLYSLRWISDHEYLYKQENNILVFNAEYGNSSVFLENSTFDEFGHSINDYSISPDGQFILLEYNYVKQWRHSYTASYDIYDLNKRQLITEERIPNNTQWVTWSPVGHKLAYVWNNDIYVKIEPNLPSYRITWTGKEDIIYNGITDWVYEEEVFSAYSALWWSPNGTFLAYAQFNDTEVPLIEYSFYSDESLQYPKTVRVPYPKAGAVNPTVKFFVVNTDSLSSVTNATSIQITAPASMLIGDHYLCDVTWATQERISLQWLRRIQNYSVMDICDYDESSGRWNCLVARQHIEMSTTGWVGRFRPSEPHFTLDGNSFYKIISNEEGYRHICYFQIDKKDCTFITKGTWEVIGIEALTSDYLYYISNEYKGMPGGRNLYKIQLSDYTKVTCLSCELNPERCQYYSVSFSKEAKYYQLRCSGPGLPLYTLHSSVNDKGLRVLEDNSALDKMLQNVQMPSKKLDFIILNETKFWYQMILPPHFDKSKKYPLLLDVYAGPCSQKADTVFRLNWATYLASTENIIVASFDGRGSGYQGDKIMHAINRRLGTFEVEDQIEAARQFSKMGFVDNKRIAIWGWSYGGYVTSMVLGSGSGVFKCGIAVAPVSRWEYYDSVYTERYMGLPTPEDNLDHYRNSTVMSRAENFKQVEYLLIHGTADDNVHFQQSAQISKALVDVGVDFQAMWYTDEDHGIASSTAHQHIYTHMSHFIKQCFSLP
21G583 CD26 fragment 29-300 (human), sequence (chain, as listed by the source): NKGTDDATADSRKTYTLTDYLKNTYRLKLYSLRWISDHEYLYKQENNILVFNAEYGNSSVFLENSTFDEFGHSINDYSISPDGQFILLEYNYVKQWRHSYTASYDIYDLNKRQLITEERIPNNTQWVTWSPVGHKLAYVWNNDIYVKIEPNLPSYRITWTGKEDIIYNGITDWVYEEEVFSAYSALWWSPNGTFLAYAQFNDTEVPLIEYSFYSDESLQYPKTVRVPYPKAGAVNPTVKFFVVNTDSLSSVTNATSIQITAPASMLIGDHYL

B1: 17G29 (CD26 arm, YS110) (antibody, V domains shown)
VH: EVQLVESGAGVKQPGGTLRLTCTASGFSLTTYGVHWVRQAPGKGLEWVGVIWGDGRTDYDAAFMSRVTISKDTSKSTVYLQMNSLRAEDTAVYYCMRNRHDWFDYWGQGTTVTVSS
VL: DILLTQSPSSLSATPGERATITCRASQGIRNNLNWYQQKPGQAPRLLIYYSSNLQSGVPSRFSGSGSGTDFTLTISRLQPEDVAAYYCQQSIKLPFTFGSGTKVEIK
- Kd (CD26 [1]): 1.18 nM

B8: 19G292 (CD26 arm) (antibody, V domains shown)
VH: QVQLLQSGAEVVKPGASVKISCKASGFNIKDTYIYWVKQPTGQGLEWIGRIEPMNGNTKYDPKFQGRFTMTANTSINTAYLQLSSLTSEDTAVYYCSRGGWLLLYVMDYWGQGTTVTVSS
VL: DIVMTQSASSLPVTPGESVSISCRSDKSLLHSNGNTYLYWFLQRPGQSPQVLIYRMSNLASGVPDRFSGSGSGTEFTLTISRVEAEDVGVYYCFQQLEYPYTFGPGTKLEIK
- Kd (CD26 [1]): < 0.001 nM

B9: 17G61 (CD26 arm) (antibody)
chain: DIVMTQAAPSVSVTPGESVSISCRSDKSLLHSNGNTYLYWFLQRPGQSPQVLIYRMSNLASGVPDRFSGSGSGTGFTLRVSRVEAEDVGVYYCFQQLEYPYTFGGGTKLEIKGGGGSGGGGSGGGGSEVQLQQSGAELVKPGASVKLSCTASGFNIKDTYIYWVKQRPGQGLEWIGRIEPMNGNTKYDPKFQGKATMTANTSSNTAYLHLSSLASEDTAVYFCSRGGWLLLYVMDYWGQGTSVTVSS
- Kd (CD26 [6]): 17.3 nM

B10: 17G105 (CD26 arm) (antibody)
chain: DIVLTQSPASLAVSLGQRATISCRASESVEYYGTSLMQWYQQKPGQPPKLLIYTASNVESGVPVRFSGSGSGTDFSLNIHPVEEDDIAMYFCQQSRKVPYTFGGGTKLEIKGGGGSGGGGSGGGGSQVQLQQSGPELMKPGASVKISCKATGYSFSGFWIEWVKQRPGHGLEWIGEILPGSGASNYHENFKGRATITADTSANTAYMQLRSLTSEDSAVYYCARERYYGSKYFDVWGAGTTVTVSS
- Kd (CD26 [6]): 39.3 nM

Other lines, results leading:

- Kd (CD26 [1]): 4.4 nM
B2: 19G297 (CD26 arm) (antibody, V domains shown)
VH: EVQLQESGPGLVKPSGTLSLTCAVSGDSITSGYWHWIRQAPGKGLEWVGYINYSGYTYYNPSLKSRFTISRDTSKNQYYLQLNSVTAEDTAVYYCTSERNWGAFAYWGQGTLVTVSS
VL: ENVLTQSPASLSASPGERVTITCRASSSVISTYLHWYQQKPGQAPKLWIYSTSNLASGVPARFSGSGSGTDYTLTISSVEPEDFATYYCQQFSGYPYTFGQGTKLEIK

- Kd (CD26 [1]): 14.8 nM
B3: 19G296 (CD26 arm) (antibody, V domains shown)
VH: B2 VH with E1Q, G16E, A23T, A40P, V48I
VL: B2 VL with S10T, V19A, I21L, T22S, T86V

- binding result [2]: no binding
- binding result [3]: no binding
- binding result [4]: no binding
- binding result [5]: no binding
B4: 21G428-429 (antibody, V domains shown)
VH: EVQLVQSGAELVKPGASVKLSCAASGFNIKDTYIYWVRQAPGQGLEWVGRIEPMNGNTKYDPKFQGRFTMTANTSKNTAYLQLSSLRSEDTAVYYCSRGGWLLLYVMDYWGQGTLVTVSS
VL: DIVMTQSPSSLSVTPGERVSISCRSDKSLLHSNGNTYLYWFLQKPGQSPQVLIYRMSNLASGVPDRFSGSGSGTDFTLTISRVEAEDVGVYYCFQQLEYPYTFGQGTKLEIKR

- Kd (CD26 [1]): 0.914 nM
B5: 19G294 (CD26 arm) (antibody, V domains shown)
VH: B4 VH
VL: B8 VL with A8P, P12S, S18R, R44K, E75D, P105Q

- Kd (CD26 [1]): 0.352 nM
B6: 21G587 (CD26 arm) (antibody, V domains shown)
VH: B4 VH
VL: B8 VL with A8P, P12S, S18R, R44K, E75D, P105Q

- Kd (CD26 [1]): < 0.001 nM
B7: 19G293 (CD26 arm) (antibody, V domains shown)
VH: B4 VH with E1Q, A23K, V48I, F68V, K76I, Q82E
VL: B8 VL with A8P, S9L, P12S, S18P, V19A, R44K, E75D, T79K, P105Q
